B1: Ch-5A12.2 (parental chimeric 5A12.2 monoclonal anti-Nectin-4 antibody) (antibody, V domains shown)
VH: QIQLQQSGAELVKPGASVTLSCKTSGFTFNSMYISWLKQKPGQSLEWIAWIYAGTGGTRFNQKFTGKVQLTVDTSSSTAYMQFSSLTTDDSAIYYCAIRSGFVPMDYWGQGTSVTVSS
VL: SIVMTQTPKFLLVSAGDRVTITCKASQSVSNDVAWYQQKPGQSPKLLIYYASNRYTGVPDRFTGSGYGTDFTFTISTVQAEDLAVYFCQQDYSSPWTFGGGTKLEIK
B2: HA22 (Enfortumab), human monoclonal anti-Nectin-4 antibody (antibody, V domains shown)
VH: EVQLVESGGGLVQPGGSLRLSCAASGFTFSSYNMNWVRQAPGKGLEWVSYISSSSSTIYYADSVKGRFTISRDNAKNSLSLQMNSLRDEDTAVYYCARAYYYGMDVWGQGTTVTVSS
VL: DIQMTQSPSSVSASVGDRVTITCRASQGISGWLAWYQQKPGKAPKFLIYAASTLQSGVPSRFSGSGSGTDFTLTISSLQPEDFATYYCQQANSFPPTFGGGTKVEIK

Legend:
[1] = biological target: T1, his-tagged recombinant extra cellular domain of the Nectin-4 protein (R&D systems/Biotechne) (Homo sapiens (Human), UniProt Q96NY8 32-349); assay: BLI (Octet Red96), His-Nectin-4 ECD as analyte
T1 construct: Bought protein; also called His-Nectin-4; recombinant his-tagged Nectin-4 EC; not shown: His tag
T1 sequence: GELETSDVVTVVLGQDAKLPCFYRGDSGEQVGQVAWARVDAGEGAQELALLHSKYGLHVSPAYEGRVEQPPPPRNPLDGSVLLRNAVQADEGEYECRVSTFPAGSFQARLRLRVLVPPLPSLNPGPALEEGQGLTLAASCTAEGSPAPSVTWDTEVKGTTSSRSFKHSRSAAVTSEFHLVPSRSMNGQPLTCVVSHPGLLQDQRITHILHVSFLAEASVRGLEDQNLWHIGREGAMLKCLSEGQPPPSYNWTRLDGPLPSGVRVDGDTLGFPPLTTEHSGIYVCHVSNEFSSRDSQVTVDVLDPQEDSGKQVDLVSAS

[2] = biological target: T1, his-tagged recombinant extra cellular …; assay: BLI (Octet Red96), antibody on AHC sensor, His-Nectin-4 ECD as analyte, 1:1 model
[3] = biological target: T2, homodimer recombinant Fc protein, IgV domain of human Nectin-4 fused to human Fc domain (human, UniProt Q96NY8 32-146, limits assumed); assay: BLI (Octet Red96), antibody on FAB2G sensor, IgV-Fc homodimer as analyte, 1:2 bivalent analyte model
T2 construct: also called Fc-Nectin-4; Fc fusion IgV Nectin-4 domain; not shown: human Fc domain
T2 sequence: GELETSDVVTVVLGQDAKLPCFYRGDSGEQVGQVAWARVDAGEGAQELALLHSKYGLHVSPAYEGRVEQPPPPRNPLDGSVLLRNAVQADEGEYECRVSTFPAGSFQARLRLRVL

Binder | Kd [1] [nM] | koff [1] [s⁻¹] | kon [1] [M⁻¹ s⁻¹] | Kd [2] [nM] | Kd [3] [nM]
B1 | 3.4 | 0.000928 | 275000 | 4.2 | 5.3
B2 |  |  |  | 5.2 | 12.9

Reference: patent EP4324849A1 (Emergence Therapeutics AG, dated 2024)
